The assay addresses PeB^GF-Lys, double substituted variant ([change], [change]) of PeB-Lys (mouse). Nature of the assay: SPR.

These results are taken from paper PMC4944999 (PLoS ONE, 2016).

“hemagglutinin (HA) of influenza A/NewYork/55/2004 H3N2, in monovalent split vaccine (natural protein)” showed a fold amount of hemagglutinin bound compared to PeB of 4 fold.
